16 sequences from a protein production outcome set (Wang et al. 2014) can be followed below.
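Further: failed if final PepcDB status was selected cloned or expressed and not failed if soluble or beyond.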

The data set can be described thus: label from the status in PepcDB records.
Turning to “MAVMDPWLIWLIVSAVLVLAEIFTLTAALGMLGVAALITAGSAAAGLSTPFQFLVFTVVSAVTLFFLRPVALRHLVQPQTQRFGVDALVGQAAYVVSDVTGREGRVRIGGEEWTARSYDETLVIPRGATVDVLEISGTTAFVYPRE”, the protein production result was “failed”.

As to “MHVNPLISVARSKASALFAALALVLVVTLTLAGCSSDKSGETTAEAKKDPSSIRVVALDWRYEEILHALGITPVGIVEIGKSKEPQTLKGELEGVTSVGQAKQPNLEVIQSLEPDLILASPTRQAAIMDQLKEIAPTHAYGDTSYTEVLDAMDDIATKVGAEDKAKEVRTRIESKIAQAKNKVEPGTRTALIGWSKNTLYTWVKDSFAGSLLTAAGYEYGYDGEKSAIESKTDVAELTGDKLPEMKLDVMYLYNDIEGFRSSPYADVVSNIVDVEQDTWSRSRGPLAAEAMLDQIINS”, the protein production result was “failed”.

Take “MIVKCPICDGTGKKVVKYKTCPVCEGTGFIDEFSPKQHMKRVSKRATYDLDYGEIPCPKCKGTGKVPVYAKCDFCGGSGKVVKCDRCGAIIGKYPDFKDRTLCDKCLKEEEERKKGLRNVYVFDELATFYDVEPGKFYKGVVTRIEKYGAFINLNEQVRGLLRPRDMISLRLENLNVGDEIIVQAIDVRPEKREIDFKYIPLTTYDLVKYEKEVPLSQIKDISQNLVEMRDQVVHIRGEVVQIVQTPGPTVFTITDGTDFAWVAALEIAGLRAHPDVKVGDIVDVIGRVTIRDGRLQIERIKLQKLEGDEAEEIRKKIEEEIDRRAEPAKDIPFLVKSEVLERLRPKMADVAKRIRKAVLDGRPIIIRHHADTDGYCGGIALEKAILPIIDKFAIDVDAIWHFFKRRPSKAPFYELEDVTKDLVFSIEDALKFGQKLPLIVLIDNGSTDEDIPAISKAKAYGIEVIVIDHHFPGEVVDGKVEVDDYVDAHVNPYLVGGDSNLTAGVLGTEIARMINPDVEDEIKHIPGIAVVGDHAKGEEAEQYVKIALDRLNELSKKYGKGRTYDREYLEKIALCMDFEAFYLRFMDGKGIVDDILATNIKEFGRHEELIDILYEQAMKMVERQMKAVIPALKTEFLENGIILNTLDVEKYAHKFTFPAPGKTTGFAHDYIVQKYGEDKPIITLSYGPDFGVVRATDAVHEKYNFNLNLIVEQLMEEIPEASLDGGGHECAGSLKFVEGLRDKVIGRFIEIIKNMKPKEQ”: the protein production result is “failed”.

In the case of “MKKLVLTGAAGRLGSYLREPLTALCDTLVSTDIVDDIGTLYAGETYVKADLAQMDQIAPVLEGADMVVHFGAIVDEKPFEELLGPNFVGSYNIWEAGYKAGVKRIVYASSIHAVGMHLKSDFIGIDAEHRPDTFYGLAKCFTEDLGRMYWDKRGLESVHLRILSCAQVNNTRALGSWLSYPDLIQLVTRAIDTPSVGFSIIYGVSNNDRAPVDNAKASFLGYRPIDNAEVYAAEVLAQAEPVDTTDPGQMCHGGPFAKVDLGQSGLAQMNVVNDKKQT”, the protein production result is on record as “failed”.

Regarding “MSGDVQPRKRKDKRRKRDDDESSHGVHITKMGNEDLHLHVHHDHGTGGHWCAKIIFFALMAVLLGLVGLIIMENRGLEDLDTPLSESRFSKVFDGWVDEHRDEHDGHDVQEPSGEALDDHDEHDDHDDHEDEDEEPLTEELEEELEEEEEPTEEDEPAADEEYEEDEDEENNAGENITAEDAEEEEEEEDNDDEGTVEATVEATTEATTEATGEYEAEEDDEDEAAADDDAVESTEAPLSKAEEQEDDEDEDEEEQEIEESVEPERSQYAAQSAPAKDNNDDDDDDDQDKNDADDGDDDEFESLAQQFENDPEDTVPAKAVESEEQDQDQADEEEPKEEGSSWLASQIKPKEAAPAPAEKEDPFEQELRKANEEMIRENYAQALRSFNTLTTNFAHEPSAHLGRARLLELLAKKERSNQRLWEAIDAYKRYLAFGELVASNQEFQTAGESCIENLRFLGHHRQATTIHELLINRLPEDPRLRNQLSLTYLMVNNLQQVEKVAVETLKLWPNNAVAQLHYGLALRQFHADYAKALPYLKYAVESGEEGTQEAFFYLSLGETMQRLSMKSEALEVYGKGVAKGFFASLYQRSLYNEPRLRAQPFWQPKETGYERQLEKLTLNWRAIRDEGLALLGRSGFFEDEAELLRDKGVWQQYELYAQGRRVKDNCRRAPITCSLLEEFPESAGCRRGQVKFSVMQAKTHVWPHCGPTNCRLRAHLTLAAPEPEKASLRVAEQERTWREGELFIFDDSFEHEVWHNGSQSRLVLILDMWHPQLSAAQRRSLSPI”, the protein production result is “failed”.

Take “MERKISDEECPVRKSMQIFAGKWTLLIIFQINRRIIRYGELKRAIPGISEKMLIDELKFLCGKGLIKKKQYPEVPPRVEYSLTPLGEKVLPIIDEIAKFGMENL”: the protein production entry is listed as “not failed”.

Regarding “MEKKKVTIPQVCHGHSRPVVDLFYSPITPDGFFLISASKDSHPMLRNGETGDWIGTFEGHKGAVWSSCLDNNALRAASASADFSAKLWDALTGDVLHSFEHKHIVRACAFSEDTKSLLTGGFEKILRVFDMNRLDAPPTEVDKSPGSIRTLTWLHSDQTILSSCTDIGGVRLWDVRSGKIVQTLETKSPVTSAEVSQDGRYITTADGSTVKFWDANHFGLVKSYDMPCNIESASLEPKSGEKFVAGGEDMWVRVFDFYTGEEIGCNKGHHGPVHCVRFTPTGLSYASGSEDGTIRIWQTTPANPEENETSSRRVKHSVDEVSKKIEGFHINKEGKTAEKPSDT”, the protein production result was “failed”.

Consider “IEIDSGSGFCFGVVNAIRHAEKQLEKSSDKLYCLGDIVHNTLEVERLGKKGLETIDYDAFSRLRGAKVLLRAHGEPPEIYRMAGENGVTIIDATCPVVLRLQNKIKSRYEATRSLGAQVVIYGKRGHAEVNGLVGQTEGTAIVIESEEELDKIDYTRPVILFSQTTKSLEGFGQIIDSISTRMQPGVTFEHHDTICRQVANRIPHIGAFATAHELVFFVAGEKSSNGKVLFGHCLAANPRSIFISSPEVIVPDMLVPLPASIGICGATSTPRWQMEEVASHIKAL”, for which the protein production entry is given as “failed”.

Consider “MNTRAPAVEARQLIKTYPGDVTALSGMDITVEPGTVFGLLGPNGAGKSTTVKILTTLARPDSGTATVAGHDVLRHPDRVRRAIGVVAQSSGADPVATGRENLRLQGRLHGLKGAGLSRRVAELLDRFKLADAAGRQVKGYSGGMRRRLDVALGLVHRPEVLFLDEPTTGLDPEARTAMWDEIARLAGDEGLTILLTTHYLEEADRLAERIAIVDRGRVVVEGTPDGLKGELRGDAIHLELREAVGQAGRTLLKGSLGGVPGVHEVLFDDAQGRRVSVRADDGAAAMPALLGALERAGVGVAAATVARPSLDDVYLRHAGRRYSEAEAEGADSLALAGATGGTRLEHHHHHH”, for which the protein production result is reported as “failed”.

Take “MSFNTIIDWNSCTAEQQRQLLMRPAISASESITRTVNDILDNVKARGDEALREYSAKFDKTTVTALKVSAEEIAAASERLSDELKQAMAVAVKNIETFHTAQKLPPVDVETQPGVRCQQVTRPVASVGLYIPGGSAPLFSTVLMLATPASIAGCKKVVLCSPPPIADEILYAAQLCGVQDVFNVGGAQAIAALAFGTESVPKVDKIFGPGNAFVTEAKRQVSQRLDGAAIDMPAGPSEVLVIADSGATPDFVASDLLSQAEHGPDSQVILLTPAADMARRVAEAVERQLAELPRAETARQALNASRLIVTKDLAQCVEISNQYGPEHLIIQTRNARELVDSITSAGSVFLGDWSPESAGDYASGTNHVLPTYGYTATCSSLGLADFQKRMTVQELSKEGFSALASTIETLAAAERLTAHKNAVTLRVNALKEQA”: the protein production entry is “not failed”.

For “MDLLKNIFKGDKVIWIIFLCLCLISIIEVFSAASTLTYKSGDHWGPITQHSIILMVGAVVVVLMHNIPYKWFQVFPVFLYPISVVLLAFVTLMGVITGDRVNGAARWMSFMGLQFQPSELAKMAVIIAVSFILSKKQDDEGANPKAFKYIMILTGLVCMLIAPENLSTAMLLFGVVVLMMFIGRVAFKKLAMLLGGLALVGCLGAVFLLAIPKDTDIPFLHRFDTWKSRITNFTEKEEVPAAKFDIDKDAQIAHARIAIATSNVIGKAPGNSIQRDFLSQAFSDFIFAIIIEELGLVGGAFVVILYIWLLVRTGRIAQKCERTFPAFLVMGIALMLVSQAILNMMVAVGLFPVTGQPLPLISKGGTSTLINCAYIGMILSVSRYTAYLEEKKENPAPLLTQSEGNETIASEAQTAAEPTAEVLNSDAKFEE”, the protein production entry is “failed”.

As for “MSLSDTIPVFDGHNDFLLRLLRNPANRETIWLKGDGTGHLDLPRMKEGGFAGGFFAIYVPSPQAHDAAHFEAMMDAPPFELPLPPMIRAEQAQPVALAMAGHLLWMERAARGRFKVCRTAAEVRSCHADGIVSGIMHMEGAEAIGADLDALHLFHSLGLRSLGPVWSRPTVFGHGVPFRFPGSPDTGEGLTEAGRRLVAECNRLKIMLDLSHLNEKGFDDVARLSDAPLVATHSNAHAVTPSTRNLTDRQLAMIRESRGMVGLNFATSFLREDGRRSAEMGWEPVLRHLDHLIDRLGEDHVGMGSDFDGATIPQGIADVTGLPALQAAMRAHGYDEPLMRKLCHENWYGLLERTWGEGHHHHHH”, the protein production result is given as “not failed”.

On to “MAGRQPGGAAMKALLHGIAEGNGRTLRNLLGLLIFIGGGYLLGRHALLLAELNLPAPIVLALKGGLLCAFGTALGAMPVLVVKTMPARLSDALLGFGAGVMLSATAFSLIMPALSAAGDLGYSKFGAGFLVSFGLAVGVMGLFILGRLMPDVHPGCEGAPLSGGIPPRILLFVTAIVLHNIPEGMAVGVSAGAGLDEANGLALGIALQDVPEGLVVALVLAGVGMSRFKAMLVGAASGLVEPLFAVLCAWLVGLSALLLPWGLAAAAGAMLFVVTHEIIPESHRQGHAAEATLGLVFGFCLMMVLDTALG”, for which the protein production entry is “failed”.

Consider “MTEVYDLEITTNATDFPMEKKYPAGMSLNDLKKKLELVVGTTVDSMRIQLFDGDDQLKGELTDGAKSLKDLGVRDGYRIHAVDVTGGNEDFKDESMVEKYEMSDDTYGKRTDSVRAWKKKMQEEQGSAAPMENESDKLNEEAAKNIMVGNRCEVTVGAQMARRGEVAYVGATKFKEGVWVGVKYDEPVGKNDGSVAGVRYFDCDPKYGGFVRPVDVKVGDFPELSIDEI”, for which the protein production entry is “not failed”.

As to “MGAQKKPAAAKVREDSEDLSRQRLQAILLADSFTTQFRSITLERPKVLLPIVNIPMIDYTLAWLESAGIEEVFVFCCAHSSQIIDYLKKSEWYTRPNPNLLVRTIVSHNSTSVGDALRYIYEQQTETSQIQGDFVLVSGDTVSNMPLADLIQQHRDRKKKDEKAIMTMVFKKQSRLGIGSDQLFVAVDPLTKQLLHYEECNSRGGDFCLDKSLLDSTVLCSDMQDCYIDICSPEVLSLFEDNFDYQHMRRHFVNGLLVDDIMGYKIFTHEIQSSCYAARIDNLRSYDTVSKDIIQRWTYPYVPNIDFSGNRPVKLGRRGIYRASDAVQSHTADVGASTVIGYGTKIGNGGKIYNSVIGNGCCIGSNVVIQGSYIWNNVTIEDGCEIRNAIVCDGVKVRAGAVLQPGVVLSFSVVVGRDFVVPAYSKVSLLQQPTTEDSDEELEYADSSSGTADHSSGLNNLQIESKASELGPDGAGYIWEICDSAHDEEWKHSVVPIPMDKLADITGAMDDDDIEDDIVVPPSGELKSDTDIINTDANDSYGDFEREVEEEFLSAVEKDNKADIVIPLINSHRLAYNMDSADCAGAVFYSMMRLAVKSPHNSATELYRNAMGVITKWKGVLGFYLKQTDAQIEVIMKFEEMCQESEELSPLFAKLLPFLYDKDVVQEDAILRWGEEKAGADDCDKVYLNKCESFIKWLKEASEEEEEDS”, the protein production entry is recorded as “failed”.

For “MPTVKSRLVLYFPGFDPLDAAAHHLRYQRAAALAGKTWDVNYAVGPRESRPAGEAFTVEASAGNWSTRSDIVVYDHNDVISQLRDASVWRQIWLGFKAGAGIVSEGGAARYLRHAWRFGLFFIFPFLLMLAGGALAAGIALSPWLFSLPLWLLVVSIPAAALFFVKAFLPFAERFHTLHLYADWRFALAVGRNEPIARDWIEERAALVVTALEEPSDEVLVVSHSMGASLALAVIGRVLELKPDALDGRKLSFATLGGAALQCAFLSSAERLRESIGAIARHPDVTWFDIQCLTDPIHLYRCNTVALTGHKDAPQPKIVPIRFKHSLSPERYKKNKRNFLRMHRQYVLGPDRRSGYDFTLLTAGPLPAASFADLESQSPPAL”, the protein production entry is on record as “failed”.
